The values below come from patent US20230406950A1 (LYVGEN BIOPHARMA, published 2023).

Assay [1] has as its target T1, human PD-L1 expressed on cells (human, UniProt Q9NZQ7 19-290).
T1 construct: whole, on cells; also called human PD-L1 expressed on CHO cells; Raji-PD-L1 cells
The assay is described as follows: flow cytometry (FACS), MFI, CHO cells expressing human PD-L1. As for the experimental part: Exemplary anti-PD-1/CD137 bi-specific antibodies were analyzed by FACS for their binding properties to human PD-1 and/or human CD137 expressed on CHO cells. Briefly, cultured cells were harvested, counted and cell viability was evaluated using the Trypan Blue exclusion method. Viable cells were then adjusted to 2×10⁶ cells per mL in PBS containing 2% BSA. 100 μL of this cell suspension were further aliquoted per well into a V-bottom 96-well plate. […] After incubation for 2 hours at 4° C., cells were centrifuged (3 min, 1000× g), washed with 250 μL/well BSA-containing FACS Stain Buffer, resuspended and incubated for an additional 1 hour at 4° C. with 100 μL/well fluorochrome-conjugated anti-IgG antibody for detection of the bisepecific antibody. Cells were then washed with 250 μL/well BSA-containing FACS Stain Buffer, resuspended in 100 μL/well FACS Stain Buffer, acquired and analyzed using a FACS machine. Binding of the bispecific antibodies to human PD-1 or human CD137 expressing CHO cells were evaluated and the mean fluorescence intensity is plotted in histograms or dot plots.
Exemplary anti-PD-L1/CD137 bi-specific antibodies were analyzed by FACS for their binding properties to human PD-L1 or human CD137 expressed on CHO cells, following the procedures disclosed in Examples 1 above.

Assay [2] deals with T2, ECD portion of human CD137 protein (mouse IgG2a Fc tag) (human, UniProt Q07011 24-186).
T2 construct: extracellular domain; also called recombinant human CD137; not shown: mouse IgG2a Fc tag
The assay is described as follows: bridging ELISA: human CD137 ECD (mouse IgG2a Fc tag) coated, antibody titrated, then human PD-L1 ECD (His tag), HRP anti-His detection; A450-A620. As for the experimental part:
(§1) Exemplary anti-PD-L1/CD137 bi-specific antibodies were analyzed by ELISA for their simultaneous binding to recombinant human PD-L1 and human CD137. Briefly, the ECD portion of human CD137 protein (mouse IgG2a Fc tag) was diluted and coated onto an ELISA plate with a volume of 100 μL/well by incubation at 4° C. overnight. The next day, the plate was blocked with PBST-BSA buffer, then serially diluted samples of anti-PD-L1/CD137 bi-specific antibodies were pipetted into appropriate wells at 50 μL/well, and the plate was incubated for 1 h followed by Washing. Human PD-L1 ECD fragment (His tag) was added into the plate at 50 μL/well. After 1-hour incubation at room temperature, HRP-conjugated anti-His tag antibody was added into the plate at 100 μL/well and […]. The plate was incubated for 1 hour at room temperature followed by washing. TMB substrate solution was added at 100 μL/well and the color development was stopped by adding 100 uL/well Stop Solution (2N H₂SO₄). Absorbance at 450 nm and 620 nm was read by Tecan F200 Pro plate reader. GraphPad 7.0, “[Agonist] vs. response—Variable slope (four parameters)” was used to plot the binding data and calculate binding EC50 values.

For assay [3], the target named is T3, Human PD-L1 ECD fragment (His tag) (human, UniProt Q9NZQ7 19-238).
T3 construct: extracellular domain; also called recombinant human PD-L1; not shown: His tag
The description is as above. As for the experimental part: as §1

T3 sequence (Q9NZQ7 19-238): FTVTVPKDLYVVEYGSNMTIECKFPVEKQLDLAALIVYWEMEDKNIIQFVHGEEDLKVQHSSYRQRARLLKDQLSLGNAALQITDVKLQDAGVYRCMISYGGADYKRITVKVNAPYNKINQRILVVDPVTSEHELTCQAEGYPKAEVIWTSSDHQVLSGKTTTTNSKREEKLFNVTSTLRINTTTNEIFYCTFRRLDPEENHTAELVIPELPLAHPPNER
T1 sequence (Q9NZQ7 19-290): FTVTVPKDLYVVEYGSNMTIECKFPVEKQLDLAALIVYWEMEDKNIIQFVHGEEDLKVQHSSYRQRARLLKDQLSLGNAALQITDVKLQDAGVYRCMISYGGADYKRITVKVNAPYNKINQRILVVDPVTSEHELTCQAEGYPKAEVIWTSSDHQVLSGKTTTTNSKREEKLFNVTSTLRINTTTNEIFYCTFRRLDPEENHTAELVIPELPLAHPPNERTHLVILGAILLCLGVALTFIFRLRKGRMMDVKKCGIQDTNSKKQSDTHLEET

B1: Ly347 (bispecific antibody, human IgG1, kappa)
heavy: QVQLVQSGAEVKKPGASVKVSCKASGYTFTDFWMSWVRQAPGQGLEWMGQIYPNTGTTHSNEKFKGRVTMTRDTSTSTVYMELSSLRSEDTAVYYCARSYHISTTPNWFAYWGQGTLVTVSSASTKGPSVFPLAPSSKSTSGGTAALGCLVKDYFPEPVTVSWNSGALTSGVHTFPAVLQSSGLYSLSSVVTVPSSSLGTQTYICNVNHKPSNTKVDKKVEPKSCDKTHTCPPCPAPELLGPSVFLFPPKPKDTLMISRTPEVTCVVVDVSHEDPEVKFNWYVDGVEVHNAKTKPREEQYNSTYRVVSVLTVLHQDWLNGKEYKCKVSNKALPAPIEKTISKAKGQPREPQVYTLPPSREEMTKNQVSLTCLVKGFYPSDIAVEWESNGQPENNYKTTPPVLDSDGSFFLYSKLTVDKSRWQQGNVFSCSVMHEALHNHYTQKSLSLSPG
light: DIQMTQSPSSLSASVGDRVTITCKASQNVYKKLEWYQQKPGKVPKVLIYHTNILQTGVPSRFSGSGSGTDYTLTISSLQPEDVATYYCYQWNSGPTFGGGTKVEIKRTVAAPSVFIFPPSDEQLKSGTASVVCLLNNFYPREAKVQWKVDNALQSGNSQESVTEQDSKDSTYSLSSTLTLSKADYEKHKVYACEVTHQGLSSPVTKSFNRGECGGGGSGGGGSGGGGSGGGGSQVQLVQSGAEVKKPGASVKVSCKASGYTFAGFEMHWVRQAPGQGLEWMGAIDPKTGGTDYNQKFKDRVTMTRDTSISTAYMELSRLRSDDTAVYYCARDLGYFDVWGQGTLVTVSSGGGGSGGGGSGGGGSGGGGSDIQMTQSPSSLSASVGDRVTITCRASQDIRSNLNWYQQKPGGAVKLLIYYTSRLHSGVPSRFSGSGSGTDYTLTISSLQPEDFATYFCQQSEKLPRTFGGGTKVEIR
notes: Anti-PD-L1/CD137: Ly076 heavy chain; Ly076 light chain fused to Ly1630 scFv (VH-VL)
On to B1, for which the binding result in assay [1] and in assay [3] was “binds” throughout. Moreover, the “EC50 (read off the curve)” value in assay [2] was approximately 0.2 µg/mL.

B2: Ly348 (bispecific antibody, human IgG1, kappa)
heavy: QVQLVQSGAEVKKPGASVKVSCKASGYTFTDFWMSWVRQAPGQGLEWMGQIYPNTGTTHSNEKFKGRVTMTRDTSTSTVYMELSSLRSEDTAVYYCARSYHISTTPNWFAYWGQGTLVTVSSASTKGPSVFPLAPSSKSTSGGTAALGCLVKDYFPEPVTVSWNSGALTSGVHTFPAVLQSSGLYSLSSVVTVPSSSLGTQTYICNVNHKPSNTKVDKKVEPKSCDKTHTCPPCPAPELLGPSVFLFPPKPKDTLMISRTPEVTCVVVDVSHEDPEVKFNWYVDGVEVHNAKTKPREEQYNSTYRVVSVLTVLHQDWLNGKEYKCKVSNKALPAPIEKTISKAKGQPREPQVYTLPPSREEMTKNQVSLTCLVKGFYPSDIAVEWESNGQPENNYKTTPPVLDSDGSFFLYSKLTVDKSRWQQGNVFSCSVMHEALHNHYTQKSLSLSPG
light: DIQMTQSPSSLSASVGDRVTITCKASQNVYKKLEWYQQKPGKVPKVLIYHTNILQTGVPSRFSGSGSGTDYTLTISSLQPEDVATYYCYQWNSGPTFGGGTKVEIKRTVAAPSVFIFPPSDEQLKSGTASVVCLLNNFYPREAKVQWKVDNALQSGNSQESVTEQDSKDSTYSLSSTLTLSKADYEKHKVYACEVTHQGLSSPVTKSFNRGECGGGGSGGGGSGGGGSGGGGSDIQMTQSPSSLSASVGDRVTITCRASQDIRSNLNWYQQKPGGAVKLLIYYTSRLHSGVPSRFSGSGSGTDYTLTISSLQPEDFATYFCQQSEKLPRTFGGGTKVEIRGGGGSGGGGSGGGGSGGGGSQVQLVQSGAEVKKPGASVKVSCKASGYTFAGFEMHWVRQAPGQGLEWMGAIDPKTGGTDYNQKFKDRVTMTRDTSISTAYMELSRLRSDDTAVYYCARDLGYFDVWGQGTLVTVSS
notes: Anti-PD-L1/CD137: Ly076 heavy chain; Ly076 light chain fused to Ly1630 scFv (VL-VH)
Take B2: the binding result in assay [1] and in assay [3] was “binds” in each case. Further, the “EC50 (read off the curve)” value in assay [2] is approximately 0.1 µg/mL.

B3: Ly346 (bispecific antibody, human IgG1, kappa)
heavy: QVQLVQSGAEVKKPGASVKVSCKASGYTFTDFWMSWVRQAPGQGLEWMGQIYPNTGTTHSNEKFKGRVTMTRDTSTSTVYMELSSLRSEDTAVYYCARSYHISTTPNWFAYWGQGTLVTVSSASTKGPSVFPLAPSSKSTSGGTAALGCLVKDYFPEPVTVSWNSGALTSGVHTFPAVLQSSGLYSLSSVVTVPSSSLGTQTYICNVNHKPSNTKVDKKVEPKSCDKTHTCPPCPAPELLGPSVFLFPPKPKDTLMISRTPEVTCVVVDVSHEDPEVKFNWYVDGVEVHNAKTKPREEQYNSTYRVVSVLTVLHQDWLNGKEYKCKVSNKALPAPIEKTISKAKGQPREPQVYTLPPSREEMTKNQVSLTCLVKGFYPSDIAVEWESNGQPENNYKTTPPVLDSDGSFFLYSKLTVDKSRWQQGNVFSCSVMHEALHNHYTQKSLSLSPGGGGGSGGGGSGGGGSGGGGSQVQLVQSGAEVKKPGASVKVSCKASGYTFAGFEMHWVRQAPGQGLEWMGAIDPKTGGTDYNQKFKDRVTMTRDTSISTAYMELSRLRSDDTAVYYCARDLGYFDVWGQGTLVTVSSGGGGSGGGGSGGGGSGGGGSDIQMTQSPSSLSASVGDRVTITCRASQDIRSNLNWYQQKPGGAVKLLIYYTSRLHSGVPSRFSGSGSGTDYTLTISSLQPEDFATYFCQQSEKLPRTFGGGTKVEIR
light: DIQMTQSPSSLSASVGDRVTITCKASQNVYKKLEWYQQKPGKVPKVLIYHTNILQTGVPSRFSGSGSGTDYTLTISSLQPEDVATYYCYQWNSGPTFGGGTKVEIKRTVAAPSVFIFPPSDEQLKSGTASVVCLLNNFYPREAKVQWKVDNALQSGNSQESVTEQDSKDSTYSLSSTLTLSKADYEKHKVYACEVTHQGLSSPVTKSFNRGEC
notes: Anti-PD-L1/CD137: Ly076 heavy chain fused to Ly1630 scFv (VH-VL); Ly076 light chain
On to B3, for which the binding result in assay [1] and in assay [3] was “binds” each time. Also, the “EC50 (read off the curve)” value in assay [2] was approximately 0.1 µg/mL.

B4: Ly299 (bispecific antibody, human IgG1, kappa)
heavy: QVQLVQSGAEVKKPGASVKVSCKASGYTFTDFWMSWVRQAPGQGLEWMGQIYPNTGTTHSNEKFKGRVTMTRDTSTSTVYMELSSLRSEDTAVYYCARSYHISTTPNWFAYWGQGTLVTVSSASTKGPSVFPLAPSSKSTSGGTAALGCLVKDYFPEPVTVSWNSGALTSGVHTFPAVLQSSGLYSLSSVVTVPSSSLGTQTYICNVNHKPSNTKVDKKVEPKSCDKTHTCPPCPAPELLGPSVFLFPPKPKDTLMISRTPEVTCVVVDVSHEDPEVKFNWYVDGVEVHNAKTKPREEQYNSTYRVVSVLTVLHQDWLNGKEYKCKVSNKALPAPIEKTISKAKGQPREPQVYTLPPSREEMTKNQVSLTCLVKGFYPSDIAVEWESNGQPENNYKTTPPVLDSDGSFFLYSKLTVDKSRWQQGNVFSCSVMHEALHNHYTQKSLSLSPGGGGGSGGGGSGGGGSGGGGSDIQMTQSPSSLSASVGDRVTITCRASQDIRSNLNWYQQKPGGAVKLLIYYTSRLHSGVPSRFSGSGSGTDYTLTISSLQPEDFATYFCQQSEKLPRTFGGGTKVEIRGGGGSGGGGSGGGGSGGGGSQVQLVQSGAEVKKPGASVKVSCKASGYTFAGFEMHWVRQAPGQGLEWMGAIDPKTGGTDYNQKFKDRVTMTRDTSISTAYMELSRLRSDDTAVYYCARDLGYFDVWGQGTLVTVSS
light: DIQMTQSPSSLSASVGDRVTITCKASQNVYKKLEWYQQKPGKVPKVLIYHTNILQTGVPSRFSGSGSGTDYTLTISSLQPEDVATYYCYQWNSGPTFGGGTKVEIKRTVAAPSVFIFPPSDEQLKSGTASVVCLLNNFYPREAKVQWKVDNALQSGNSQESVTEQDSKDSTYSLSSTLTLSKADYEKHKVYACEVTHQGLSSPVTKSFNRGEC
notes: Anti-PD-L1/CD137: Ly076 heavy chain fused to Ly1630 scFv (VL-VH); Ly076 light chain
B4: the binding result in assay [1] and in assay [3] was “binds” each time. In addition, in assay [2], the “EC50 (read off the curve)” value is approximately 0.1 µg/mL.
